Data from patent US20110201549A1 (UNIVERSITY OF GEORGIA RESEARCH FOUNDATION, published 2011).

Biological target: T1, chymotrypsin-treated Cry3Bb (Bacillus thuringiensis, UniProt Q06117 162-652)
T1 construct: Insecticidal Cry toxin; It was coated on microtiter plates after chymotrypsin treatment; also called Cry3Bb protein; Cry3Bb toxin
T1 sequence: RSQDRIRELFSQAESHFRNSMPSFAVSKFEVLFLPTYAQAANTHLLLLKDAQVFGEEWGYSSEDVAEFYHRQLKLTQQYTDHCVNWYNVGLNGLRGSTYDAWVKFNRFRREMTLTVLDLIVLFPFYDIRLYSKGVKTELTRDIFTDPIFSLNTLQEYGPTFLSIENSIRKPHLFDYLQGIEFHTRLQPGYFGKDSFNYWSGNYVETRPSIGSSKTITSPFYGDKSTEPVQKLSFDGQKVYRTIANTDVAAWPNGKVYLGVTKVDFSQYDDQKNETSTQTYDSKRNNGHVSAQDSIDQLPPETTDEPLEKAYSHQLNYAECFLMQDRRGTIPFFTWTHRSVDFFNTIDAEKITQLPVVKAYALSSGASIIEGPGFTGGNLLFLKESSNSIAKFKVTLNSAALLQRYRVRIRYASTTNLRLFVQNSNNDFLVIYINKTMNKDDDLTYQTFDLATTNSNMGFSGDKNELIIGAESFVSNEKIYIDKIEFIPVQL
Experiment: ELISA-based microplate binding assay: plates coated with chymotrypsin-treated Cry3Bb, increasing concentrations of biotinylated TmCad1-TBR, streptavidin-HRP detection, one site saturation fit
Experimental: FIG. 7 illustrates TmCad1-TBR binding to Cry3Bb (Panel A) and enhancement of Cry3Bb toxicity to lesser mealworm by TmCad1-TBR peptides (Panel B). In Panel A, TmCad1-TBR binding to Cry3Bb protein was determined using an ELISA-based binding assay. Microtiter plates were coated with chymotrypsin-treated Cry3Bb and then incubated with increasing various concentrations of biotinylated TmCad1-TBR peptide. Bound biotinylated TmCad1-TBR peptide was detected with a Streptavidin-HRP conjugate and substrate. Non-specific binding was determined in the presence of 1000-fold excess unlabeled TmCad1-TBR peptide. Each data point is the mean of two experiments done in duplicate. Error bars depict standard deviation. Binding affinities (Kd) were calculated based on specifically bound biotinylated TmCad1-TBR peptide using a one site saturation binding equation. […] Cry3Bb inclusions without or with and increased amount of TmCad1-TBR inclusions were applied to semi-solid diet. One 1st instar darkling beetle larva was applied per well and the bioassays was scored on day 3. No toxicity was observed when treated with TmCad1-TBR peptide alone.
We tested the possibility that TmCad1-TBR binds a coleopteran-active Cry toxins using a microplate binding assay described previously (Zhang et al. 2008). […] TmCad1-TBR also enhances Cry3Bb toxicity to A. diaperinus larvae (FIG. 7A).

B1: TmCad1-TBR cadherin fragment from the Tenebrio molitor cadherin (T. molitor cadherin Toxin Binding Region) (receptor)
chain: MKQWYQRRVAITAGKDTTSKDKLQYNIDNITPSNLDLDIKSAFTMNTQSGDITINFEVKDSMEGYFTLDLSVQDEEPENHKADATLKIYIVTSKNTVVFRFENDQETVSDKAGDIKSVLDEEFQYETKVEAPTGNTTDGTPLTRSPVFFLNLNTNEPVDATEILKKVTNVDVFQRLKNNFSKVGLVLLSFDSSSETNENLEAHHHHHH
modifications: biotinylated (sites not given)
notes: also called CR12-MPED of TmCad1
  Kd: 13 nM
